Measurements from paper PMC3185416.
Like-named read-outs stand apart in the source and are kept apart here.

Key:
Smad4 MH1dN10 = Smad4 MH1dN10 (mouse, UniProt P97471 11-140); experiment: EMSA
Smad4 MH1dN8 [1] = molecular target: T1, Smad4 MH1dN8 (mouse, UniProt P97471 9-140); experiment: EMSA
Smad4 MH1dN12 = Smad4 MH1dN12 (mouse, UniProt P97471 13-140); experiment: EMSA
Smad4 MH1dN3 = Smad4 MH1dN3 (mouse, UniProt P97471 4-140); experiment: EMSA
Smad3 MH1 S100K = Smad3 MH1 S100K (UniProt Q8BUN5 1-143, S99K); experiment: EMSA
Smad3 MH1 99HSHH102/HKN = Smad3 MH1 99HSHH102/HKN (UniProt Q8BUN5 1-97+=HKN+102-143, internal_change); experiment: EMSA
Smad3 MH1 K33R = Smad3 MH1 K33R (UniProt Q8BUN5 1-143, K33R); experiment: EMSA
Smad2dE3 MH1 = Smad2dE3 MH1 (UniProt Q62432-2 1-153, del79-108); experiment: EMSA
Smad3 MH1 = Smad3 MH1 (UniProt Q8BUN5 1-143); experiment: EMSA
Smad4 MH1 [2] = molecular target: T2, Smad4 MH1 (mouse, UniProt P97471 1-140); experiment: EMSA
Smad1 MH1 = Smad1 MH1 (UniProt P70340 1-136); experiment: EMSA
Chain of Smad1 MH1 (P70340 1-136): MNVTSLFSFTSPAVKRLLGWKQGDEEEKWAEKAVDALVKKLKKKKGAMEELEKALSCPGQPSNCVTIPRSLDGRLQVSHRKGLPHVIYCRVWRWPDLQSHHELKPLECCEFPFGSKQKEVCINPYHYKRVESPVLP

Smad4 MH1;Smad3 MH1 = Smad4 MH1;Smad3 MH1 (mouse;mouse?, UniProt P97471;Q8BUN5 1-140;1-143, |); experiment: EMSA
Smad4 MH1;Smad1 MH1 = Smad4 MH1;Smad1 MH1 (mouse;mouse?, UniProt P97471;P70340 1-140;1-136, |); experiment: EMSA
Smad4 MH1;Smad2dE3 MH1 = Smad4 MH1;Smad2dE3 MH1 (mouse;mouse?, UniProt P97471;Q62432-2 1-140;1-153, |del79-108); experiment: EMSA
Smad4 MH1 R38K = Smad4 MH1 R38K (mouse, UniProt P97471 1-140, R38K); experiment: EMSA
Smad4 MH1 K106S = Smad4 MH1 K106S (mouse, UniProt P97471 1-140, K106S); experiment: EMSA
Smad4 MH1 105HKN107/HSHH = Smad4 MH1 105HKN107/HSHH (mouse, UniProt P97471 1-104+=HSHH+108-140, internal_change); experiment: EMSA
Smad4 MH1 AG/SH = Smad4 MH1 AG/SH (mouse, UniProt P97471 1-140, A85S;G86H); experiment: EMSA
Smad4 MH1 [3] = molecular target: T2, Smad4 MH1; experiment: EMSA; remark: listed apart in the source
Smad4 MH1dN8 [4] = molecular target: T1, Smad4 MH1dN8; experiment: crystal structure
Smad4 MH1 [5] = molecular target: T2, Smad4 MH1; experiment: EMSA; remark: listed apart in the source

Measured: binding result

B1: palindromic SBE (EMSA) (dsDNA)
DNA 1: TCAGTCTAGACATAC
DNA 2: GTATGTCTAGACTGA
binds: Smad4 MH1dN10 | Smad4 MH1dN8 [1] | Smad4 MH1dN12 | Smad4 MH1dN3 | Smad3 MH1 S100K | Smad3 MH1 99HSHH102/HKN | Smad3 MH1 K33R | Smad2dE3 MH1 | Smad3 MH1 | Smad4 MH1 [2] | Smad1 MH1 | Smad4 MH1;Smad3 MH1 | Smad4 MH1;Smad1 MH1 | Smad4 MH1;Smad2dE3 MH1 | Smad4 MH1 R38K | Smad4 MH1 K106S | Smad4 MH1 105HKN107/HSHH | Smad4 MH1 AG/SH

B2: palindromic SBE 16-bp (crystal) (dsDNA)
DNA 1: TGCAGTCTAGACTGCA
DNA 2: TGCAGTCTAGACTGCA
binds: Smad4 MH1 [3] | Smad4 MH1dN8 [4]

B3: OPN1 promoter element (dsDNA)
DNA 1: TGGAGACTGTCTGGA
DNA 2: TCCAGACAGTCTCCA
binds: Smad4 MH1 [5]

B4: JunB promoter element (dsDNA)
DNA 1: GACAGTCTGTCTGCC
DNA 2: GGCAGACAGACTGTC
binds: Smad4 MH1 [5]
